test: soluble on expression in E. coli; label from the status in PepcDB or PDB records

| Sequence | soluble on expression in E. coli |
| --- | --- |
| GPGSMRGIARPTVATVGLSQQVVAFDEWVWALNELGGRESFRKNWRYYALRIDTVHFLMFVLDVLNGQALDEARQYLKEVTSHYHEVPLLVVFNNFREGHRRFDISEFEALIHLDKLRRRHGADVLSCVCDISVVHSKNRQLPRTLSSTLRTLSSLLKARSKSENGGDGGAPPVPKATTSFSASVVGGAAGDAAAGDGVVHS | not soluble |
| GPGSMRRFPPPPPTRTCAHERVKHAVPIPFRVTCFWPAMSAAPSEAFAEAETMEQLRLKGNACFADDPAEAAKYYTQAVQLYEERHGEDAACSLDEFTKSAGNALTCLFKMGETEQCAALAVRVLASNPILAKANAFYGRCALVDPSLDSVSTGFGTASAAALVHLCRAIYELPALEPNTRENIDEALTRLIGERVSVTETFARSPEAGVKLVRGQCGVGVEAIRTLPPLVEVVSLLTPFSVGAFEDFAGKGCCVECSKPIGLDVADAAAEEPNEDDGDEENDKDEGNVKATKEKPSTCTACNMVVYCSPACADAHREQHERFECARMTRLSDMMQGIEARKLDVPEQFFELAYHCITTLAGIKAKRAGHERVLTLTAHVDEVIQSLHPIGPLMCDLFKGEERPATLYTIIGVLCCNALELADPSGLGVAQALHAGNSIASFFNHSCTPNCAIDTVRHAIVTTRTIHVGEELSIAYIPQLYWPTRLRRERLSESYYFVCRCQRCESSNKDPFERALSMELPTARREATKHFHPIVQTTCATVRSRMVGDVSQKDADELSKLLRELSTHLFPFHYLCHEVRNCLSFVYAVLGQTRECLCSCLDELLMWECILPGALPVKRMKIENALQCVQGFGANVSDCSAALLPHLSRLALVYDAEGPI | not soluble |
| GPGSMRTQTFPQQPRAPGMLPHLSNGAAAPAAPQVPAVQEHTDVVHDTQFDYYGLQLATASSDRTIGIHVARAGAPLNRVATLTGHEGPVWMVSWAHPRFGNLLASASYDQKAIIWKEIRQGAPKWTPVHVIDIHHGSVNAVQWAPEEYGPVVATASSDGTVAITAYRDGCWQPSVKLSNNSNQIAHAMGATSVTFAPFKSELADHVVVASGGCDGHVRLWVSASSPERGLGFELHQVIEAHADWVRDVAFCPTSPASRFVILASCGQDKTVVMYRKPWDQLCAETSEGVSQATEWERSVIEFAEPVWRLSWAPSGEMLVVTNAKSEVFVLREGVDFTEPWIKLPLKDFQQ | not soluble |
| GPGSMSALNDSRTTSGRPLPGGKPYALRPEGIPPSLCGDNVGASRGGDSIGDFKTAFEQPHSIDSEEEGDVEAASSPEQRLRRVQRDVYRHERQIASLFSEKHEHCEHLATVYKELEKVLRKIQLAPLEDLKGHAASPSASTFCAPSSDEDGYAASSTVSALASSLQQRFHQVLQQHQDRVYDVLVDYRQQINKSEYETGRRLCAIEEAIAQIQSDVRELQHTASIQVEELRHVQQDVRQRVEAVAVQQEAQRAALDATREARDTKAAKLLSKIQDDVAGLRADAKAARTQQIESAKDVEEQIRSLLSAQHRTEEALGAHSASIAQLQNQDSLEGAFHEVKDWLGDLEKRMVSRGELLQWTASLQSEIHQMRRVTGGVLSHTIEPTAPGQDA | soluble |
| GPGSMSANDVQNPPVEDDEVPTLEAADTQQASKPSKRYAKAMAKMGLKPEPNISKVHIRKRAALSFVVNQPEVYRFPGTNTFLIFGEAQLGDTTMQTQEAAARAVSGALVEEVGTAGEETSELAGETPAAAAPSESKQTPDDVEIVEGEFDDKEIAVVMAQGKTDRIGAIRALRNNKGDIVNAIMELTMDPN | not soluble |
| GPGSMSASNSCTVEEVRKEYAKLLDPQEPLDSRMRELYRLKEDCLKTVAGVTVILEAIDTTDSVLLQHELAYNAGQSGREEAVPELERILRTTSYDVVTRHEAAEALGAIGSPLALQVLETHSAPTTEPEASIRETCELALARIAMKETKGDAAVAPPSGCEFVSVDPSPAFSALYSSTDEPVPLTVEELEAVLLDTSGRTRLFRRYMAMFTLRNLATEAAVAALCRGLREDTISALFRHEVAFVLGQLERPSSQPALIAALKDEEEAPMVRHEAAEALGAIADPATLPVLESYATHHEPIVRDSCVVALEMHKYWAHFNSLAHQQQEA | soluble |
| GPGSMSFKPTISVHATPQELSAAGCRKIVEIIETSGSQQWPLSIALAGGSTPKMTYARLHDEHLNLLREKRALRFFMGDERMVPADSTDSNYNMAREVLLHDIPDDLVFPFDTSAVTPSAEATSADAMRVAEAYGKQLASLLPLKSVGEAGAKVPVFDVVLLGLGSDGHTASIFPGSQAEKETDGKVVVSVGFPSETMKPKVWRVTLSPATIMQARNVIVLATGAEKKWVVDGILADTAHKAPVARFLRGCEGNVSFLLDKEIAENLAKF | soluble |
| GPGSMSLVESQKGMTDLIPCNEQCGGDYGNYSFGQGDLDVTVTVPLPENTTKKMLLVQITASKLIVGLRGKPPIISGDFYRPVKASECTWCIEDKRLLVINMVKTNSQHEEWWPCVVVGERQIDMKTLKPPSKHVSELDESAQATIAKMMFDQRQKMQNLPTSEEMRLQEMMRAAQGAK | soluble |
| GPGSMSSFAPNVKICEDISHISSAARDIILAAIDARVDKSAPVVLALSGGSTPKRLYEELHEKDLTLLQQHAVQFILGDERLVATDDEQSNFSMATKALLRDVPISDVIAIEPSAALATSKDEKGGVDGAWAVAQDYEKKLRNRLPCTQVNGTDMSVPIVDIVLLGFGADGHTASIFPDSVAATDESHVVSVSFPSPTMNPKVWRVTLSKTVIQHAKHVVVLACGKDKNWVVHGVLAEAPTGPLPVSRFLRECRGSVTMLLDAGSGEGLSA | soluble |
| GPGSMSSKAALLAVLAGSGQEHLVDDYDALSPSEQTTLATQILSYTNAQWKHMNVILRDSLRLLNLSNAAAGTGGGDAATAAPNITPPPADTIINVPALLAKRPSELAAIRAAGMRVVASGEGAVLLMAGGSGTRLGMTIPKGMVECDKLVSGRSLFAYHCQRIRKMERMAAAAAASLSQPSAVAAAGAAPVPPGAGRGTMPLLVTTSDQNDTATRQFFHDHDFFGLLPNQVFFSRQSSLPCYDEATGRVLMQARGSICLAPGGNAGVYESLAKASATTSGSQSVLAQIEARGVRYVQIVSVDNILARVGDPYFFGVAASYQAEVVLKTVPKVSAAEKVGVVAQVDGEWAVVEYTEIGDRRSAETDPATGELAFNCGSIASHCCSLDFLALAATYMETSTFYHAARKTIPTINGPAPAIKLEAFIFDVFRYAKDVPSRAERAKKAPLPDALQILQVDRSMEFAPIKNADGAAADTPTTAAQLLLDLHTRWVTEAIEAAPGTYAVASTSTSAMYTALERATALQRLRDGQCCWEISPLVSYEGEGLAAYVGQLIHRSATGSGVLGLEEATAGTANM | soluble |
| GPGSMSSLTEGARASHTSSKEAGYYRLQSPKHINIDPCVYEIRTMRGSGPGGQGTNSSSNKVELRADMELLSEFFDEELLAALRRHEAGGALTNDGTTIVVSCHEHRSALQNKEGCLRKLQTLLHKASWVPPAEAGLVERPSFIVTEQKVRRRKKSNMNRMTRSARSGSW | soluble |
| GPGSMSTMAASRSDTPAPVHEMSMERLRREYVSLKSTSYSLTVEESHLIRKIETLREESVRAVLNAEMKEEQVSNQLFRRLDGAEREVQRYQALLKEEESEAESLSGRIKEMRSQQTEVENALEERQEYLLMNLQRKLLDMARKKTAVEQELMAERQKYLDVLVTRLNMLRGRGVGSSTESSVTIHSQPSPAEANTVPVAKHLDVPLPTTAAPHISTPLLRTGVPLGDNHGMLPAEKPLREDAHTDAGLPLPFVLSPAISAQKKPKDGVIVNASRGNTSSTSGRLSASTTPLSADLTPRSSHSSETHHAVVALERKLNQLLLEQAAAMQRTSATEKQCAVLTAKLHAVQEATFLDRARASKMKEELEKARARLSEVKARDRSGIPFSPLDDTSVMSGSNASFDNSSPLVLSSLSLRERTRELLSSVPQPNANERPC | not soluble |
| GPGSMTPTRAQLAAFVDHTLLKPEATAADVAALVTEAAELGVYAVCVSPPMVPAAVQAGAGVRVASVAGFPSGKHVSAVKAHEAALAVASGAAEIDMVIDVGAALAGDLDGVRADIAAVRGAVGGAVLKVIVESSALLALADEHTLVRVCRAAEDAGADFVKTSTGFHPSGGASVRAVALMAEAVGGRLGVKASGGIRTAADALAMLDAGATRLGLSGTRAVLDGLG | soluble |
| GPGSMTRELHRLYVTEPAPPPSLYILTGAGTKAFCAGGDVIGLTTNNPPGCGREFFYWEYQVDYKASIIPAGQVCLWDGYVLGGGAGLSIGSAYRVASEKACFAMPEVAIGMFPDVGASWFLPRLSVPGLGLYMGLTGHRLRGADLVHLGLATHFVPSAKMGELEQALVSMSDAGDVEAVLDKYTTPTTQLPPCTIAHSISSLASHFDITADLTISSILDACREHAQTDPLAKAAADLMPSFSPTAMTLALELLKRGA | not soluble |
| GPGSMTSPKIKAVFVDMDGTLFNSDHLISPRTAKVIHALEERGVAFVVATGRPFPDVFGNLAQTELRPDFIITSNGARVHDAQHNILFACDMDAESVCRLFQLSPHLSEDGVVDPSVQARRILCNVNCRDRWLTNECIPEVRAAFHPSFIYERVDPMVQTAKTLEGTHSMWIRGAHADLVCVQKYVDRELSGEIRCAFALPHILDCFRKDVNKGAAMEKVCKHLRIDLRETIAFGDGMNDIRMLTAAGQGFVMANAAEMVKQAAPELPVIQSNNEEGVAWKLEELLAADAFVG | soluble |
| GPGSMTTSASLFKKFTLENVAQIASSSHKEQKEVREELAEQYPALEAYWEEILPKKSDIFIIRCQGQVHCITLVSSQPEVLFFNHHGGPYLPHLKLLHKYPFMLTRHQVDIGGCRYVISGANVMCQGLTSAGGIVADGTEEGEVVAVYVEGKEHAVAVGTMLMSSDEIKEKNKGPCIENIHHLGDGLWMNPVLSASHISV | soluble |
| GPGSMVIKKDVPFKYTLHQGLCERDPVLSTPLIITAGVDGNELQYRLDMQVPSHSAIEGMEVTNVEFLFTSSKCNAGKSNQHLSKCSMLVYLYMQLLDGVGRPTSPPFPISCCNTHTGKGIFSCVKLPLQVNQQCRFYLVRRSCTDSASQSAMELKGVRFTSKLYLLYRSPLNSAKVRSQMDVLTGGDLKFTADTEVMTSTGAKRSREELERFGSENSDRKGKKAKRERETATTMDRASDDEPPNLIYAFVSGGDNES | soluble |
| GPGSMVKPRSQGPRRPAVKQADNKSVGDRSKTAVTEKMKPSRLVGGTTGAKKERREGKKVSTGKANKVAATSASTVVLKEGGKPSGPSHGTGTNSSRRGKRSPQAQTRRAAARVASRVIESNSRITAATNRMNTAREELALFDQVTQMPAFVADPFTAIDEHLSTAMDFLQPQTPDVGRVKRE | soluble |
| GPGSMVRCSRPAFRQVCRAWGTRVSYTHMLMAESFVKSPHARHAEFARYEGENRLVAQLAAKSGPAAAQAALLLRPYCDGIDLNCGCPQRWAMKEGIGAALLDQPERVADMVRSIRNAMPDGSTAPMIVGNGGEYSSCTSAVPPFLPCVVKMRIKDDLRRSVDFARQCEAAGVSWLTVHGRTPTCHSSTAVQFEAVKLIRENLSVPVVLNGGVTDVSTAMEAALRTGCGGLMSANGLLDNPAMFYCGASRAAMEAEMSFVTSCWGRPPRTCDPVSPPAETAAPDVFSEVFSPVRPVSFLWAPDRSNAEAVLLRYTVADMWQAAVTPREVISDFMRAAMRTDLVVPTTVQQVLRMARLYVSPAERNHLALLRSNLSVLNALQEIDVYVESGRIACE | not soluble |
| GPGSSAHAPEGKRATKTELGSTSLYVRVGQLTNLRRHPDADRLYVEDMVLGDETRTIVSGLVESYAIEELEGTQCLVVCNMKPKSLMGVTSQGMVLCAKRDTEVKLIRPPAGAKPGDRILFGASYDAAIAAAAPPEPISSNKMSEVLSHLHTNADSVLCWKDEPARHPSGAAVAIADMANCPVS | soluble |
| GPGSSLMFSRPPSKLSGAPTREDLDEIIAEEVREWVAKMVGVKHNADVWSMPNFVDALRSGVLLHVLLQKMESPPVSDEDLKLPKRTTGFFVRDNVATFLTTAKSRYDLVDAQLFTVSDLVDGKNDRQVVTCLMSIARIAYSAGAIK | not soluble |
